According to the DeepSol protein solubility set:

Assay: soluble on expression in E. coli; label from the status in PepcDB or PDB records

Sequence	soluble on expression in E. coli
MGLSDWELAAARAAIARGLDEDLRYGPDVTTLATVPASATTTASLVTREAGVVAGLDVALLTLNEVLGTNGYRVLDRVEDGARVPPGEALMTLEAQTRGLLTAERTMLNLVGHLSGIATATAAWVDAVRGTKAKIRDTRKTLPGLRALQKYAVRTGGGVNHRLGLGDAALIKDNHVAAAGSVVDALRAVRNAAPDLPCEVEVDSLEQLDAVLPEKPELILLDNFAVWQTQTAVQRRDSRAPTVMLESSGGLSLQTAATYAETGVDYLAVGALTHSVRVLDIGLDM	soluble
MGLSVVILAAGKGSRMNSNKPKVLQTLAAKTLIEHVVSSVEKLNPDNIVVVTGHLKEQVEDALQGRNITFVYQQQQLGTGHAVLQALPYLKEQKVLILYGDVPLISTEVLENLVDTTNDDDLGVLTAFVENPQGLGRIVRDKFGAVTEIVEEKDANDIQRQIKEINTGIYCVHKNLLQKWLPEIKANNVQKEYYLTDIITFAKADHVSINVTHPINEFEILGVNDRTQLASLERVWQRNVAEKIMAKGVSIADPNRFDVRGNLDVGKDCWIDINVIIKGNVKLGNNVVIGANCILKNCIIEDNVRIKSNSMVDGSIIREGAIVGPFARVRPECDVKEGAVIGNFVEAKKTILGKGSKASHLTYLGDSEIGANCNIGAGVITCNYDGVNKHKTVIGDYAFIGSDSQLIAPVNIGQGATVGAGSTIVKDVPADNLAISRARQRHIDTWQRSVKKTDK	not soluble
MGLVTSILGRREYRLLQNSVTKKHLCKFMGVEFDYNDLDEITEIRVGENIFDTFESYARFAMKDTMKSIFAECKAMKTCLARIEREKQTEASMNHKIRQCYITLRRLCQLYYKFYQDLEKLKIPEHAWNVPLVKKAEKSIVVLDHAIYKFKAKGNLDVKKFREEVSHQYNIIEEVLKQFKSMDEGEYVEMRMKEEMKTEEA	not soluble
MGNCNARPATFKPKNLPMEYPKKYAMYPTRRRMRASERRTYKRDCKNLLESVAGENPFEGDEETANNYTEAIFSISIKAKVLKTYMDLIESSINEECPVNGHIQLFCNEINNLSHLYEVFFRKSIVSVDTRVEERKEIARAAYRDIKNLTIIIYLNKERSKTLLQSVMMHTEFQTHQAEKLVEHYEATFSPILKEVLPDPNAPRIHRTPTRAQIIAFWEEVRREKESGTLGTPF	not soluble
MGNQQCNWYGTLYPLCVTTTNGWGWEDQRSCIARSTCAAQPAPFGIVGSG	soluble
MGPGTTVRWRRRVSGWRRAGCAALIAGAVALPLSGAARPEIPAPPPAALAAPTAATLDKAYAANRANAAEASRMAADHGDRHRAAADRAMADRSRRLLAFDGRGTGLATEVFGDLARADRVAVLVPGSDTGLDTYGRFRATALALHRQLVAEAPAGTRTAVVAWLGYETPGTVSTTVATTDRADRAAPELRALVGDLRRITGPGTRLALLCHSYGSVVCARAADGLEVADIALVGSPGTGADTAAGLHSEARVWAGRGAEDWVEHVPHVSADLFGTTVGFGTDPVSPAFGARVFDAGDGGHSDYFDPGSRSLTNLARIALGETTEVTHALEHHHHHH	not soluble
MGQCRSANAEDAQEFSDVERAIETLIKNFHQYSVEGGKETLTPSELRDLVTQQLPHLMPSNCGLEEKIANLGSCNDSKLEFRSFWELIGEAAKSVKLERPVRGH	soluble
MGQDRGFGFPTQRLCSLSSLALSHLGKQDLNLVSKTCGDTTDMFSTRGSYQVSTQVSQSYFDGYCGWVHGSSHLQQQFLPPQNQCMKQVPLQVDGVISKAEEQCSQKRFLVFDQSGDQTTLLLASDIRKSFETLKQHACPDMKEELQRSNKDLFVCHGMQGNSEPDLKEDSEELNALLYSEDESGYCSEEDEVTSADHSPSIVVSGREDQKTFLGSYGQPLNAKKRKILETSNESMRDAESSCGSCDNTRISFLKRSKLSSNKIGEEKIFETVSLLRSVVPGEELVDPILVIDRAIDYLKSLKMEAKNREA	soluble
MGQSFSSSFNAKQTSSSTPQKSTKTPTCSDPRSPSQDIERTPIQVKTVENDENGSSESSTTKADKPRKTSLRQKMFARKKNMNSETDE	not soluble
MGRCYNNIVIDASIEAVWQQIGNFHDMSWAKGVITSLVKVGPASGTEVGAKRILNDAIHETLVSLDSSNYTFTYSIDDGPDAIAKSAVDNYLGMVNLSESSTGVLVEWSSSFTSDNEKAVTEFCDPIYMALLGALKNSLRLEHHHHHH	soluble
MGRFAVYEDPFVTKLMNTIGSMTFDGLGFTLLELYRDLVISADNYFMNYVNYGETPHDVGEESIEDPIYGASYPYWWTDLGPTLVLMLYRDYVFTSNREILEKNYNKIKEIIDWLIRKDMDNDCIPDSKGGYDNSYDGTHMYGASSYIASMFLSALTAFIKMSEILDVKIDDKYYRFLECGKKTFNSLWNGKYFILWKKNDEENTSCLNSQLLGQFWCDILGLPPITDHDKINTALRSIYELNFKASKYCLTNAVREDGSVDSSTAQLRSCWPRVSFAVAAHMILRGMVKEGIEVAKREWETIKELNPFDQSSRIDAIDGKYVGLMSYIGSTSVWLLKLALDKIRLEHHHHHH	soluble
MGRHLRLPSGTKLIVARNQGEVNFLKGFRNRYNYAYRKDGKGTFALIKGNPPEEELQLIADIIARYSKNEPAKVGIHLNGKEIELIGNPPSDEFLEQFKIYAKKEVGHGR	not soluble
MGRKWNNIKEKKASKDANTSRIYAKFGREIYVAAKQGEPDPESNQALKVVLERAKTYSVPKNIIERAIEKAKGGAEENYDELRYEGFGPNGSMIIVDALTNNVNRTAPEVRAAFGKNGGNMGVSGSVAYMFDATAVIVVEGKTADEALEILMEADVDVRDILEEDDSAKSCYAEPDQFHAVQEAFKNAGVEEFTVAELQMLAQSEVTLPDDAKEQFEKLIDALEDLEDVQQVYHNVDLGELEHHHHHH	soluble
MGRLDGKVIILTAAAQGIGQAAALAFAREGAKVIATDINESKLQELEKYPGIQTRVLDVTKKKQIDQFASEVERLDVLFNVAGFVHHGTVLDCEEKDWDFSMNLNVRSMYLMIKAFLPKMLAQKSGNIINMSSVASSVKGVVNRCVYSTTKAAVIGLTKSVAADFIQQGIRCNCVCPGTVDTPSLQERIQARGNPEEARNDFLKRQKTGRFATAEEIAMLCVYLASDESAYVTGNPVIIDGGWSL	not soluble
MGRSHHHHHHGSLVPRGSEQGSNVNHLIKVTDQSITEGYDDSDGIIKAHDAENLIYDVTFEVDDKVKSGDTMTVNIDKNTVPSDLTDSFAIPKIKDNSGEIIATGTYDNTNKQITYTFTDYVDKYENIKAHLKLTSYIDKSKVPNNNTKLDVEYKTALSSVNKTITVEYQKPNENRTANLQSMFTNIDTKNHTVEQTIYINPLRYSAKETNVNISGNGDEGSTIIDDSTIIKVYKVGDNQNLPDSNRIYDYSEYEDVTNDDYAQLGNNNDVNINFGNIDSPYIIKVISKYDPNKDDYTTIQQTVTMQTTINEYTGEFRTASYDNTIAFSTSSGQGQGDLPPEK	soluble
MGRTSKDKRDVYYRLAKENGWRARSAFKLLQLDKEFQLFQGVTRAVDLCAAPGSWSQVLSQKIGGQGSGHVVAVDLQAMAPLPGVVQIQGDITQLSTAKEIIQHFKGCPADLVVCDGAPDVTGLHDVDEYMQAQLLLAALNIATHVLKPGGCFVAKIFRGRDVTLLYSQLQVFFSSVLCAKPRSSRNSSIEAFAVCQGYDPPEGFIPDLSKPLLDHSYDPDFNQLDGPTRIIVPFVTCGDLSSYDSDRSYPLDLEGGSEYKYTPPTQPPISPPYQEACTLKRKGQLAKEIRPQDCPISRVDTFPQPLAAPQCHTLLAPEMEDNEMSCSP	soluble
MGSDKIHHHHHHAAIIFAFLYFTNNHKTDLESTISEQWNKITTFFSNDFSLPDTMSKLSTDNYKHEAGSRWSQNSASVYIASTDKTIVKAYQTALANWNATGSFTFNIISDKASADITAKDYSDVNSQAAGLAETETNAVTNRMSHVDVKLNRYYLLDASYGYSFDRIVHTAEHELGHAIGLDHDDKETSVMASSGSYNGIQTVDITAVKKLYAN	not soluble
